Patent US10494417B2, “Peptide inhibitors of BCR-ABL oligomerization” (University of Utah Research Foundation, priority 2014, dated 2019)
Values joined by “and” are separate entries in the source; they are usually repeats but may differ in a detail not shown here. Identical values can stand only once. “Also recorded” adds a separate entry of the source.

Columns and labels:
K562 cells [1] = test: Nuclear (DNA) segmentation apoptosis assay in transfected K562 cells; format: cell-based, human; conditions: 48 h, vs EGFP control
Method: CC^mut3 was then tested for its ability to induce apoptosis in K562 cells. Apoptosis was observed using 3 different methods: 1) nuclear segmentation; 2) induction of the effector Caspase-3/7; and 3) 7AAD/Annexin V staining.
Nuclear segmentation analysis was performed as previously described (16). Briefly, immediately prior to cellular analysis, 2-well live cell chambers were treated for 15 min with poly-L-lysine (Sigma-Aldrich, St. Louis, Mo., USA), to allow cell adhesion in the wells. Forty-eight h following transfection, the transfected K562 cells were transferred to the pretreated 2-well live cell chambers. Cells were incubated for 15 min at 37° C. following the addition of 0.3 μL Hoechst H33342 nuclear stain (Life Technologies, Carlsbad, Calif., USA). Cells were then imaged using an inverted fluorescence microscope (Olympus IX701F, Scientific Instrument Co., Sunnyvale, Calif., USA) equipped with an F-view Monochrome CCD camera. Fields of view were selected based on EGFP fluorescence when viewing using a 40× oil immersion objective. Nuclei from cells that were positively transfected (positive for EGFP fluorescence) were categorized as either healthy (round or kidney-shaped nuclei) or segmented (punctate staining of nuclei), and the percentage of cells with segmented DNA was calculated (n=3 in replicate).

Ba/F3-p210-T315I cells [2] = test: Trypan blue proliferation assay of transfected Ba/F3-p210-T315I cells; format: cell-based, mouse; conditions: CC^mut3 alone, trypan blue exclusion, 72 and 96 h
Method: Cell counts were performed using a standard light microscope.

[3] = system: Ba/F3 cells expressing native BCR-ABL1 (Ba/F3-p210); test: Annexin V/7-AAD apoptosis assay in transfected Ba/F3-p210 cells; format: cell-based, mouse
Method: (§1) Assays were run in triplicate (n=3).
(§2) For analysis of apoptosis and cell death, cells were pelleted and resuspended in Annexin V-binding buffer (BD Biosciences), stained with anti-Annexin V-APC (BD Biosciences or Life Technologies) and 7-AAD (BD Biosciences or Life Technologies) and analyzed on a BD FACSCanto flow cytometer. In addition to the APC and 7-AAD channels, GFP- and mCherry-positive cells were also recorded.
as §2, with “apoptosis and necrotic cell death,” for “apoptosis and cell death,”, “anti-Annexin V-APC and 7-AAD” for “anti-Annexin V-APC (BD Biosciences or Life Technologies) and 7-AAD”

[4] = biological target: T1, isolated CC domain from Bcr-Abl (Homo sapiens, UniProt P11274); test: Mammalian two-hybrid assay of coiled-coil dimerization; format: cell-based; conditions: isolated CC domain from Bcr-Abl
T1 construct: using the isolated CC domain from Bcr-Abl instead of the full-length protein; expressed in transfected cells
T1 sequence (P11274 1-72): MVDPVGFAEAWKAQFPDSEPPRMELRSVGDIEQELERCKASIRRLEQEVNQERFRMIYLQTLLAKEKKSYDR
Method: As mentioned above, the design process of CC^mut3 involved favoring hetero-dimerization with Bcr-Abl while avoiding homo-dimerization with another CC^mut3 molecule. Thus, a mammalian two-hybrid assay was performed to measure the likelihood of each scenario, using the isolated CC domain from Bcr-Abl instead of the full-length protein (for ease of use).

K562 cells [5] = test: Peptide internalization Western blot, K562 cells; format: cell-based, human; conditions: 30 μM, 1.5 hours, Western blot of cell lysates
Method: 1.0×10^6 cells resuspended in RPMI or DMEM were seeded in a CellStar 6 well plate (Sigma Aldrich). Cells were then treated with the peptides (CPP-CCmut3, CPP-CCwt, CCmut3, and CPP-His) at a final concentration 30 uM. This is a standard concentration used in cell-penetrating peptide studies. For the kinase activity Western blot, cells were treated with peptides for 16 hours.
For the internalization experiment, cells were treated with peptides for 1.5 hours followed by a 15 minute incubation at 37° C. with heparin sulfate, 0.5 mg/mL (a gift from Kuby Balagurunathan, University of Utah). Cells were centrifuged and resuspended in 1 mL plain RPMI. Trypsin was added to a final concentration of 0.1% w/v, and the cells were incubated at 37° C. for 10 minutes. At that time 1 mL FBS was added to neutralize the trypsin. Cells were then centrifuged at 500×g for 10 minutes, followed by 3 rounds of washes with 5 mL cold PBS.
For both kinase activity and internalization Western blots, cells were resuspended in 100 μL of RIPA lysis buffer (Cell Signaling, Danvers, Mass., USA) with 100× protease/phosphatase inhibitor added (Cell Signaling) and transferred into a pre-chilled microcentrifuge tube. Cells were then sonicated, centrifuged at 12,000×g for 15 minutes, and then the supernatant was transferred into a fresh, pre-chilled microcentrifuge tube. […]

Ba/F3-p210-T315I cells [6] = test: Annexin V/7-AAD apoptosis assay in Ba/F3 BCR-ABL1 T315I cells; format: cell-based, mouse; conditions: 72 h, CCmut3 vs EV
Method: as §1, §2
as §2, with “apoptosis and necrotic cell death,” for “apoptosis and cell death,”, “anti-Annexin V-APC and 7-AAD” for “anti-Annexin V-APC (BD Biosciences or Life Technologies) and 7-AAD”

[7] = system: Ba/F3 cells expressing native BCR-ABL1 (Ba/F3-p210); test: Colony forming assay of transfected Ba/F3-p210 cells; format: cell-based, mouse; conditions: CCmut3 alone vs EV or EGFP control
Method: Briefly, K562 or Ba/F3-p210 cells were transfected according to the protocol above. One day following transfection, 1.0×10^6 cells per transfection group were collected and re-suspended in sterile PBS. […] Finally, 1.1 mL of cell/methylcellulose mixture was seeded in duplicate and allowed to grow at 37° C. and 5% CO2 for 7 days. Colony formation was assessed by counting colonies in two 200 μm2 areas on the plate. Experiments were performed once in duplicate (n=1 in duplicate). All kit reagents and media were purchased from Stem Cell Technologies (Vancouver, BC, Canada).

B1: CCmut3: modified Bcr-Abl coiled-coil domain (residues 1-72) with mutations C38A, K39E, S41R, L45D, E48R, Q60E (protein)
chain: MVDPVGFAEAWKAQFPDSEPPRMELRSVGDIEQELERAEARIRRDEQRVNQERFRMIYLETLLAKEKKSYDR
For B1, the “induction of apoptosis (nuclear/DNA segmentation)” value (K562 cells [1]) was “increase in apoptosis; also recorded: significantly induced apoptosis”, the “induction of apoptosis (nuclear/DNA segmentation)” value (K562 cells [1]; listed as CC^mut3) was “induces apoptosis; also recorded: causing apoptosis via nuclear segmentation” and the cell proliferation (Ba/F3-p210-T315I cells [2]) was “inhibit Ba/F3-p210-T315I cell proliferation”. For the same molecule, the “apoptosis, in words” value ([3]; 72 h, CCmut3 vs EV) was “increases apoptosis”, the “increase of apoptotic cells” value ([3]; 72 h, CCmut3 vs EV) was “approximately 3 fold” and the “increase in apoptotic population” value ([3]; CC^mut3 versus EV control (FIG. 14B)) was “more than 30%”. For the same molecule, the “hetero-dimerization with BCR-ABL” value [4] was “favors hetero-dimerization; also recorded: strongly favors hetero-dimerization”, the internalization into cells (K562 cells [5]) was “unable to enter the cells; also recorded: not internalized; also recorded: did not enter” and the “apoptosis, in words” value (Ba/F3-p210-T315I cells [6]) was “increase of apoptosis”. The increase in apoptosis (Ba/F3-p210-T315I cells [6]) was 6-8 fold and > 5 fold, the “apoptosis, in words” value (Ba/F3-p210-T315I cells [6]; listed as CC^mut3) was “significant shift toward the apoptotic fraction” and the increase in apoptosis (Ba/F3-p210-T315I cells [6]; listed as CC^mut3) was 6-8 fold. The “colony formation, in words” value [7] was “greatly reduced; also recorded: nearly eliminated colony forming ability” and the “colony formation, in words” value ([7]; listed as CC^mut3) was “greatly reduced; also recorded: nearly eliminated CFCs; also recorded: significantly lower than the EGFP control”.
